Here are results for two substances from patent US20160122387A1, “Angiotensin Peptide and Pharmaceutical Compositions for Disease Treatment” (UNIVERSIDADE FEDERAL DE MINAS GERAIS - UFMG, priority 2012, published 2016).

Square brackets hold non-standard residues; d marks the D form. Ends that are not written are not given here.

For assay [1], the target named is T1, Mas receptor (Rattus norvegicus, UniProt P12526).
T1 construct: from tissue; host or cells: SHR rat thoracic aorta rings and mesenteric artery rings
T1 sequence (P12526 1-324): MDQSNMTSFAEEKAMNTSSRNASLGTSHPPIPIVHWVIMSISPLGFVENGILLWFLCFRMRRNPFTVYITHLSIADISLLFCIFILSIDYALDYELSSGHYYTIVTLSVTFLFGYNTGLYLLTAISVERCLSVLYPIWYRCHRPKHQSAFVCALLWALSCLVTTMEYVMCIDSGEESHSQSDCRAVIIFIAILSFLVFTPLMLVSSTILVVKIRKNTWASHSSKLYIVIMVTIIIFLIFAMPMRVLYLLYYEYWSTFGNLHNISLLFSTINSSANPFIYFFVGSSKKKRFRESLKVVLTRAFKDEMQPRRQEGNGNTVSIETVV
In words: Vasorelaxation in SHR mesenteric rings in the presence of Mas receptor antagonist A-779. As for the experimental part:
Rings (2.0 mm) of mesenteric artery (2nd and/or 3rd branches) in spontaneously hypertensive rats (SHR), free from adipose and connective tissue, were maintained in a gasified solution (95% 02 and 5% CO2) of Krebs-Hanseleit, at 37° C. After a 15 minute stabilization period, the artery was stretched, gradually, to a resting tension considered optimal with respect to its inner diameter. For this, in each arterial segment, the voltage/diameter was calculated by internal circumference which corresponds to a transmural pressure of 100 mmHg for a relaxed vessel in situ (IC100) using software specific for standardization resistance arteries. For the experiments, the arteries were maintained with an internal circumference, IC1, calculated using the formula IC1=0.90×IC100, in which the development of strength is maximum, as previously described by Mulvany and Halpern (1977). The effective luminal diameter was determined according to the I1=IC1/π equation. […]
The presence of functional endothelium was assessed by the ability of acetylcholine [ACh] […] The mechanical activity was recorded isometrically using a myograph, which was connected to a system for data acquisition and to a computer.
The SHR vessels were pre-contracted with sub-maximal concentrations of phenylephrine (0.1 μmol/L). […] The result was expressed as a percentage of decrease in peak concentration induced by phenylephrine. […]

Assay [2] deals with T1, Mas receptor. In words: Vasorelaxation in SHR aortic rings in the presence of Mas receptor antagonists A-779 and D-Pro. The protocol: Three- to four-mm rings of the descending thoracic aorta in spontaneously hypertensive rats (SHR), free from adipose and connective tissue, were maintained in a gasified solution (95% 02 and 5% CO2) of Krebs-Henseleit, at 37° C. under a tension of 1.0 g for 1 hour for stabilization. The presence of functional endothelium was assessed by the ability of acetylcholine [ACh] (10 μmol/L) to induce more than 70% relaxation of vessels pre-contracted with phenylephrine (0.1 μmol/L). The mechanical activity, recorded isometrically by a force transducer, was fed into a recorder-amplifier and a computer equipped with an analog-digital converter board, using CVMS data acquisition/recording software.
The SHR vessels were pre-contracted to the same voltage level (approximately 1.0 g tension) at the submaximal concentration of phenylephrine (0.1 μmol/L). Mas receptor antagonists, A-779 and D-Pro, were added to […] immediately before adding the arg0-Ang-(1-7) in increasing cumulative concentrations. Results are presented as mean±SEM. One-way analysis of variance (ANOVA) with the Newman-Keuls post-test for multiple comparisons was used to compare the concentration response curves obtained in the aortic rings. The result was expressed as the percentage of decrease in peak concentration induced by phenylephrine. All statistical analyses were considered significant when p<0.05.

For a further assay, the target named is rat receptor Mas (rat) (UniProt P12526). As to the kind of experiment: cell-based or functional assay.

For the substance “Asp-Arg-Val-Tyr-Ile-His-D-Ala (DRVYIH[dA]) [A-779]”, the “antagonist effect on the vasorelaxation produced by arg0-Ang-(1-7)” value with Mas receptor [1] and in the assay with Mas receptor [2] was “blocked the vasorelaxant effect of the peptide” in each case.

arg0-angiotensin-(1-7) (peptide): in the assay with rat receptor Mas (rat), the Emax of vasorelaxation by arg0-Ang-(1-7) in SHR mesenteric artery rings in the presence of A-779 was found to be 14.1%, the Emax of vasorelaxation by arg0-Ang-(1-7) in SHR rat aortic rings in the presence of A-779 amounted to 14% and the Emax of vasorelaxation by arg0-Ang-(1-7) in SHR rat aortic rings in the presence of D-Pro came out at 11%.
